Data reported in patent publication US8178581B2, “Production of peracids using an enzyme having perhydrolysis activity” (E. I. du Pont de Nemours and Company, priority 2005, dated 2012).

Assay: Perhydrolysis of triacetin with hydrogen peroxide; peracetic acid measured by HPLC method of Karst et al.
Type: biochemical
Conditions: Table 14: triacetin 250 mM, H2O2 1.0 M, pH 6.5, 25° C., 50 μg/mL of commercial lipase
Description: Determination of the concentration of peracetic acid in the reaction mixture was performed according to the method described by Karst et al. Aliquots (0.250 mL) of the reaction mixture were removed at 10 min and 30 min and filtered using an Ultrafree® MC-filter unit (30,000 Normal Molecular Weight Limit (NMWL), Millipore cat #UFC3LKT 00) by centrifugation for 2 min at 12,000 rpm; removal of the protein component of the aliquot by filtration terminated the reaction. An aliquot (0.100 mL) of the resulting filtrate was transferred to 1.5-mL screw cap HPLC vial (Agilent Technologies, Palo Alto, Calif.; #5182-0715) containing 0.300 mL of deionized water, then 0.100 mL of 20 mM MTS (methyl-p-tolyl-sulfide) in acetonitrile was added, the vials capped, and the contents briefly mixed prior to a 10 min incubation at ca. 25° C. in the absence of light. To each vial was then added 0.400 mL of acetonitrile and 0.100 mL of a solution of triphenylphosphine (TPP, 40 mM) in acetonitrile, the vials re-capped, and the resulting solution mixed and incubated at ca. 25° C. for 30 min in the absence of light. To each vial was then added 0.100 mL of 10 mM N,N-diethyl-m-toluamide (DEET; HPLC external standard) and the resulting solution analyzed by HPLC as described below.
Supelco Discovery C8 column (10-cm×4.0-mm, 5 μm) (cat. #569422-U) w/precolumn Supelco Supelguard Discovery C8 (Sigma-Aldrich; cat #59590-U); 10 microliter injection volume; gradient method with CH3CN (Sigma-Aldrich; #270717) and deionized H2O at 1.0 mL/min and ambient temperature: […]
An extract of E. coli UM2/pSW186 transformant (20 mg total protein/mL extract, prepared as described in Example 21) was employed in 1.0 mL perhydrolysis reactions (run as described in Example 21) containing triacetin (40 mM or 100 mM), hydrogen peroxide (40 mM or 100 mM) and extract total protein (0.1 mg/mL or 1.0 mg/mL) in phosphate buffer (Pi, 100 mM, 200 mM or 300 mM) at pH 6.5 or 7.5 at 25° C. each reaction (Table 11).
(§1) Separate 1.0 mL reactions containing triacetin (250 mM), hydrogen peroxide (1.0 M) and 50 μg of extract total protein in 50 mM phosphate buffer (pH 6.5) were run at 25° C. with each transformant extract. […] The concentration of peracetic acid in the reaction mixtures (Table 12) was determined according to the method of Karst et al. as described in Example 2.
as §1, with “1-mL” for “1.0 mL”, “protein from a cell extract (prepared as described above)” for “protein”, “C.” for “C. with each transformant extract.”, “13)” for “12)”, “al.” for “al. as”, “2. […]” for “2.”

| Molecule | PAA (ppm); 5 min [ppm] | PAA (ppm); 30 min [ppm] |
| --- | --- | --- |
| Novozymes Lipolase 100 L type EX: commercial lipase, source Thermomyces lanuginosus (Novozymes) (protein, UniProt O59952 23-291, looked up) Lipase: EVSQDLFNQFNLFAQYSAAAYCGKNNDAPAGTNITCTGNACPEVEKADATFLYSFEDSGVGDVTGFLALDNTNKLIVLSFRGSRSIENWIGNLNFDLKEINDICSGCRGHDGFTSSWRSVADTLRQKVEDAVREHPDYRVVFTGHSLGGALATVAGADLRGNGYDIDVFSYGAPRVGNRAFAEFLTVQTGGTLYRITHTNDIVPRLPPREFGYSHSSPEYWIKSGTLVPVTRNDIVKIEGIDATGGNNQPNIPDIPAHLWYFGLIGTCL | 10 | 0 |
| Novozymes Lipozyme TL 100 L: commercial lipase, source Thermomyces lanuginosus (Novozymes) (protein, UniProt O59952 23-291, looked up) Lipase: EVSQDLFNQFNLFAQYSAAAYCGKNNDAPAGTNITCTGNACPEVEKADATFLYSFEDSGVGDVTGFLALDNTNKLIVLSFRGSRSIENWIGNLNFDLKEINDICSGCRGHDGFTSSWRSVADTLRQKVEDAVREHPDYRVVFTGHSLGGALATVAGADLRGNGYDIDVFSYGAPRVGNRAFAEFLTVQTGGTLYRITHTNDIVPRLPPREFGYSHSSPEYWIKSGTLVPVTRNDIVKIEGIDATGGNNQPNIPDIPAHLWYFGLIGTCL | 125 | 370 |
